Test results published in patent US7838231 (REGENTS OF THE UNIVERSITY OF MICHIGAN, dated 2010).

Key:
[1] = molecular target: T1, NPHP3, human full length, yeast two-hybrid prey (human, UniProt Q7Z494 1-1330); experiment: direct yeast two-hybrid assay
T1 sequence (looked up): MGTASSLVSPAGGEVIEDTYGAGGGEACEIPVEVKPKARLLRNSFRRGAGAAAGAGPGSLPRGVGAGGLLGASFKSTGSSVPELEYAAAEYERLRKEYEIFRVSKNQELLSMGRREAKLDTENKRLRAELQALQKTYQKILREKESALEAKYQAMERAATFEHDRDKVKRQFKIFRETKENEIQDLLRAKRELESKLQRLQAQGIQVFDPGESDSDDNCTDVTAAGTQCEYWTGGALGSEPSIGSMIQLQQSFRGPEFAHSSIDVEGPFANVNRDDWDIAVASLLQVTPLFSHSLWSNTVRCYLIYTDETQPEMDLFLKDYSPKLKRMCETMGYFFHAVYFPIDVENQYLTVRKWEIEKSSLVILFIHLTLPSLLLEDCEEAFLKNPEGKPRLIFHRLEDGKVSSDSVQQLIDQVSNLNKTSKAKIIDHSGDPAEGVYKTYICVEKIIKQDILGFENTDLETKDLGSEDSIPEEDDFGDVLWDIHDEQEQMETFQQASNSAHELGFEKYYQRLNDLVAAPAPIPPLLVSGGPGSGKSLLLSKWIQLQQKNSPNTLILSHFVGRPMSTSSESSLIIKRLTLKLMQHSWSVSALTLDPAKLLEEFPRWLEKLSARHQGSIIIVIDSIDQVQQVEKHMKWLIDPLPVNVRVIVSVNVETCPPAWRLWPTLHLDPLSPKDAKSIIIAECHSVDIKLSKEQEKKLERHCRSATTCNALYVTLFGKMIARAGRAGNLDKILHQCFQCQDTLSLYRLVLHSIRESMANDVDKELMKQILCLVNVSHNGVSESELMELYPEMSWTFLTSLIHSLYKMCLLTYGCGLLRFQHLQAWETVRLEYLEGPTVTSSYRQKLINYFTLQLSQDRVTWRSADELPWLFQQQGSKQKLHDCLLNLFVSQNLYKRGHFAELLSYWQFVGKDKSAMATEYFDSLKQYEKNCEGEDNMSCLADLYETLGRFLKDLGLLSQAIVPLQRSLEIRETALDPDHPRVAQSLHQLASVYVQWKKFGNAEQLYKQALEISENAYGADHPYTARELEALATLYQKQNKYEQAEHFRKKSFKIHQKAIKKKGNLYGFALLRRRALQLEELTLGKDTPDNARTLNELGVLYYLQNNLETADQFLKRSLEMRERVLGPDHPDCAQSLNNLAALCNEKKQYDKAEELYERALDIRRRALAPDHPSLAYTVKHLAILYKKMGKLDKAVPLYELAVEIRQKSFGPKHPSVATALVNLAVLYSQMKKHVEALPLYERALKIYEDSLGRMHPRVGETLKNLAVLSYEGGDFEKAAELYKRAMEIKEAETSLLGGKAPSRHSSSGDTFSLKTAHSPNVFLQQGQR

[2] = molecular target: calmodulin (CALM2), human full length, yeast two-hybrid fusion (human, UniProt P0DP24 1-149); experiment: yeast two-hybrid screen of a human fetal brain expression library, NPHP5 as bait

binding result [1]: no binding | binding result [2]: binds
B1: full-length human nephrocystin-5 (NPHP5), yeast two-hybrid fusion (other, not shown: small tags and cut ends)
chain: MKPTGTDPRILSIAAEVAKSPEQNVPVILLKLKEIINITPLGSSELKKIKQDIYCYDLIQYCLLVLSQDYSRIQGGWTTISQLTQILSHCCVGLEPGEDAEEFYNELLPSAAENFLVLGRQLQTCFINAAKAEEKDELLHFFQIVTDSLFWLLGGHVELIQNVLQSDHFLHLLQADNVQIGSAVMMMLQNILQINSGDLLRIGRKALYSILDEVIFKLFSTPSPVIRSTATKLLLLMAESHQEILILLRQSTCYKGLRRLLSKQETGTEFSQELRQLVGLLSPMVYQEVEEQKLHQAACLIQAYWKGFQTRKRLKKLPSAVIALQRSFRSKRSKMLLEINRQKEEEDLKLQLQLQRQRAMRLSRELQLSMLEIVHPGQVEKHYREMEEKSALNIQKHWRGYRERKNFHQQRQSLIEYKAAVTLQRAALKFLAKCRKKKKLFAPWRGLQELTDARRVELKKRVDDYVRRHLGSPMSDVVSRELHAQAQERLQHYFMGRALEERAQQHREALIAQISTNVEQLMKAPSLKEAEGKEPELFLSRSRPVAAKAKQAHLTTLKHIQAPWWKKLGEESGDEIDVPKDELSIELENLFIGGTKPP
notes: Full-length NPHP5 cDNA (598 amino acid residues) fused to a GAL4 domain; also called KIAA0036
